Patent US20200354475A1 (KITE PHARMA, published 2020)

Molecular target: T1, CAR comprising the anti-CD19 scFv FMC63 (SEQ ID NO: 1)
T1 construct: also called FMC63 CAR; CAR presenting the anti-CD19 scFv FMC63; not shown: rest of the CAR (hinge, transmembrane and signalling domains) is not described for the constructs used
Assay: immunohistochemistry on fixed cell pellets of CAR T cells presenting the FMC63 scFv, PBMC as control
Procedure: Several antibodies disclosed herein, (Clones 7 and 13) were assessed with respect to their ability to function as reagents in immunohistochemistry (IHC) studies. To create the fixed cell pellets for IHC staining, ˜2e6 CAR T cells presenting the anti-CD19 scFv FMC63 (SEQ ID NO: 1) were centrifuged and washed with PBS. The cells were resuspended in PBS containing 0.45% paraformaldehyde (PFA) and incubated on a shaking platform for 2 hours at room temperature. After the incubation, the cells were washed once more with PBS and resuspended in PBS with 5% BSA.

T1 sequence (chain, as listed by the source): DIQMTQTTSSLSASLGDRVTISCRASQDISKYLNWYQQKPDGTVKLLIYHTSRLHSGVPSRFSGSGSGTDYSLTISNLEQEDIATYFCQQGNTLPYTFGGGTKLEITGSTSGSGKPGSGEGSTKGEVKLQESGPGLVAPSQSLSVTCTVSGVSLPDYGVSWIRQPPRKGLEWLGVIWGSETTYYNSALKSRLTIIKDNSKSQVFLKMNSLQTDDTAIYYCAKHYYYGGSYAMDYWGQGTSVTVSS

binding result: binds
B1: Clone 7 (antibody, V domains shown)
VH: QEQLEESGGDLVKPGGTLTVTCKASGFSFSNNGICWVRQAPGKGLEWIGCLYVGSSDTTYYASWAKGRFTISKSSSTTVTLQMTSLTVADTATYFCTINLGLWGPGTLVTVSS
VL: AIVVTQTPSSKSVPVGGTVTINCQASESVYNSDWLAWYQQKPGQPPKQLIYAASTLASGVPSRFKGSGSGTQFTLTISDVVCDDAATYYCAGYKSSSTDGIAFGGGTEVVVKG
notes: Rabbit monoclonal antibody from a hybridoma; also called antibody Clone 7
